1 substance from paper PMC5463365, “Assembly and use of high-density recombinant peptide chips for large-scale ligand screening is a practical alternative to synthetic peptide libraries” (BMC Genomics, 2017) can be followed below.

Experiment [1] deals with 5'FAM-labeled Strep-tag II peptide. Kind of experiment: fluorescence polarisation; 20 nM 5'FAM-labeled peptide with rising concentrations of Streptavidin/StrepTactin, triplicates; ES2 buffer (100 mM potassium phosphate pH 7.4, 100 μg/ml bovine γ globulin, 0.02% NaN3); at least 2 h at RT or o/n at 4 °C. In general terms: In fluorescence polarisation assays a small probe gives low polarisation when free and higher when bound to something large.

Experiment [2] has as its target 5'FAM-labeled F14.5 peptide. The experiment is described as above.

Usually Kd stands for the free concentration of one partner at which half of the binding sites on the other are occupied at equilibrium, for simple one-to-one binding. Recombinant StrepTactin, unconjugated: the results for the Kd in experiment [1] and in experiment [2] were 430 nM and 44.3 µM, respectively.
